Data as given in patent US20130196320A1, “METHOD FOR IMPROVING CLEAVAGE OF DNA BY ENDONUCLEASE SENSITIVE TO METHYLATION” (CELLECTIS, priority 2010, published 2013).

Experiments:
Format in all cases: cell-based, human
[1] = tested on: XPC4 target locus in 293H cells; assay: Meganuclease-induced mutagenesis at XPC4 target locus by deep sequencing, 5-aza-2-deoxycytidine treatment
Description: FIG. 10: Frequencies of mutagenesis events measured by deep sequencing. Cells were pre-treated with 5-aza-2-deoxycytidine at 0.2 μM or 1 μM 48 hours before transfection with XPC4 meganuclease or empty vector. The treatment was maintained 48 hours post-transfection. Two days post-transfection, the genomic DNA was extracted and a PCR with primers surrounding target site was performed. The results were expressed as a percentage of PCR fragments containing a mutation.
The human 293H cells (ATCC) were plated at a density of 1.2×10^6 cells per 10 cm dish in complete medium (DMEM supplemented with 2 mM L-glutamine, penicillin (100 IU/ml), streptomycin (100 μg/ml), amphotericin B (Fongizone: 0.25 μg/ml, Invitrogen-Life Science) and 10% FBS) supplemented with 5-aza-deoxycytidine. The next day, cells were transfected with 3 μg of meganuclease expression vector in the presence of 5-aza-deoxycytidine and Lipofectamine 2000 transfection reagent (Invitrogen) according to the manufacturer's protocol.
Cells were pre-treated with 5-aza-deoxycytidine at 0.2 μM or 1 μM 48 hours before transfection and the treatment was maintained 48 hours post-transfection. As a control, cells not treated with 5-aza-2-deoxycytidine (NT) were used. Extraction of genomic DNA was performed 48 hours after transfection.
After genomic DNA extraction, the XPC4 target locus was amplified with specific primers flanked by specific adaptator needed for HTS sequencing on the 454 sequencing system (454 Life Sciences)
5000 to 10 000 sequences per sample were analyzed.

[2] = tested on: ADCY9 endogenous recognition site in 293H cells; assay: Meganuclease-induced mutagenesis assay at ADCY9 recognition site
Description: The human 293H cells (ATCC) were plated at a density of 1.2×10^6 cells per 10 cm dish in complete medium (DMEM supplemented with 2 mM L-glutamine, penicillin (100 IU/ml), streptomycin (100 μg/ml), amphotericin B (Fongizone: 0.25 μg/ml, Invitrogen-Life Science) and 10% FBS). The cells were pre-treated with 5-aza-deoxycytidine at 0.2 μM or 1 μM, 48 hours before transfection and the treatment was maintained 48 hours post-transfection. The medium was changed every day. The cells were transfected with 5 μg of DNA plasmids encoding meganuclease using Lipofectamine 2000 transfection reagent (Invitrogen) according to the manufacturer's protocol.
The efficiency of the meganuclease to promote mutagenesis at its endogenous recognition site was evaluated by sequencing the DNA surrounding the meganuclease cleavage site.
Two days post-transfection, genomic DNA was extracted. 200 ng of genomic DNA were used to amplify (PCR amplification) the endogenous locus surrounding the meganuclease cleavage site. PCR amplification is performed to obtain a fragment flanked by specific adaptor sequences [adaptor A: 5′-[…]-NNNN-3′ (SEQ ID NO: 46) and adaptor B, 5′-[…]-3′ (SEQ ID NO: 47)] provided by the company offering sequencing service (GATC Biotech AG, Germany) on the 454 sequencing system (454 Life Sciences). The primers sequences used for PCR amplification were: ADCY9_F3: 5′-[…]-NNNN-[…]-3′ (SEQ ID NO: 48) and ADCY9_R3: 5′-[…]-[…]-3′ (SEQ ID NO: 49). Sequences specific to the locus are underlined. The sequence NNNN in primer F1 is a Barcode sequence (Tag) needed to link the sequence with a PCR product. The percentage of PCR fragments carrying insertion or deletion at the meganuclease cleavage site is related to the mutagenesis induced by the meganuclease through NHEJ pathway in a cell population, and therefore correlates with the meganuclease activity at its endogenous recognition site. 5000 to 10000 sequences were analyzed per conditions.

[3] = tested on: ADCY9 endogenous locus in 293H cells; assay: Meganuclease-induced gene targeting assay, ADCY9 locus; conditions: for targeted events, % of the transfected cells: ADCY9 meganuclease + repair matrix, n=2
Description: FIG. 14: ADCY9 meganuclease efficiency is impaired by DNA methylation in vivo. 293H cells were co-transfected with 5 μg of […] meganuclease expressing vector or empty vector and 2 μg of DNA repair matrix vector in presence or absence of DNA methylation inhibitor (5-aza-2′deoxycytidine). 480 individual cellular clones were analyzed in each condition for the presence of targeted events using specific PCR amplification.
Cell culture as well as general transfection conditions were described in Example 4. For this assay, 293H cells were co-transfected with 5 μg of ADCY9 meganuclease expressing vector and 2 μg of DNA repair matrix. The DNA repair matrix consists of a left and right arms corresponding to isogenic sequences of 1 kb located on both sides of the meganuclease recognition site. These two homology arms are separated by a heterologous fragment of 29 bp (sequence: […], SEQ ID NO: 64). Two days post-transfection, cells were replated in 10 cm dish. Two weeks later, individual clones were picked and subsequently amplified in 96 wells plate for 3 days. 480 individual cellular clones were then analyzed per condition. DNA extraction was performed with the ZR-96 genomic DNA kit (Zymo research) according to the supplier's protocol. The detection of targeted DNA matrix integrations was performed by specific PCR amplification using the primers ADCY9_F4: 5′-[…]-3′ (specific to the 29 bp of heterologous sequence) (SEQ ID NO: 50) and ADCY9_R4: 5′-[…]-3′ (specific to a genomic sequence located outside of the homology arm) (SEQ ID NO: 51).

Nc1ncn([C@H]2C[C@H](O)[C@@H](CO)O2)c(=O)n1 [5-aza-2′deoxycytidine, reference compound]
mutagenesis ([1]; empty vector, 1 μM of 5-aza-2′deoxycytidine): low or absent | mutagenesis, PCR fragments carrying a mutation ([2]; Empty vector, 0.2 μM 5-aza-2′-deoxycytidine): 0.03% | mutagenesis, PCR fragments carrying a mutation ([2]; Empty vector, 1 μM 5-aza-2′-deoxycytidine): 0.03% | targeted events ([3]; absence of meganuclease, with 5-aza-2′deoxycytidine treatment): no targeted events could be detected

B1: XPC4: engineered meganuclease (SEQ ID NO: 2) designed to cleave xeroderma pigmentosum group C gene (XPC) (protein)
chain: MANTKYNEEFLLYLAGFVDGDGSIIAQIKPNQSHKFKHALQLTFKVTQKTQRRWFLDKLVDEIGVGYVQDSGSVSNYILSEIKPLHNFLTQLQPFLELKQKQANLALKIIEQLPSAKESPDKFLEVCTWVDQVAALNDSKTRKTTSETVRAVLDSLSEKKKSSPAAGGSDKYNQALSKYNQALSKYNQALSGGGGSNKKFLLYLAGFVDSDGSIIAQIKPNQSHKFKHQLSLAFQVTQKTQRRWFLDKLVDRIGVGYVRDRGSVSDYILSKIKPLHNFLTQLQPFLKLKQKQANLVLKIIEQLPSAKESPDKFLEVCTWVDQVAALNDSKTRKTTSETVRAVLDSLSEKKKSSP
PCR fragments carrying a mutation ([1]; XPC4 meganuclease, absence of 5-aza-2′deoxycytidine): 0.2-0.5% | mutations ([1]; XPC4 meganuclease, samples treated with 5-aza-2′deoxycytidine): up to 7.6%

B2: ADCY9: engineered meganuclease (SEQ ID NO: 3) designed to cleave adenylate cyclase 9 gene (protein)
chain: MANTKYNEEFLLYLAGFVDGDGSIIAQIKPNQSYKFKHQLSLTFRVTQKTQRRWFLDKLVDEIGVGYVRDSGSVSNYDLSEIKPLHNFLTQLQPFLELKQKQANLVLKIIEQLPSAKESPDKFLEVCTWVDQVAALNDSKTRKTTSETVRAVLDSLSEKKKSSPAAGGSDKYNQALSKYNQALSKYNQALSGGGGSNKKFLLYLAGFVDSDGSIIAQIKPDQSYKFKHQLGLTFQVTQKTQRRWFLDKLVDRIGVGYVRDRGSVSDYILSEIKPLHNFLTQLQPFLKLKQKQANLVLKIIEQLPSAKESPDKFLEVCTWVDQVAALNDSKTRKTTSETVRAVLDSLSEKKKSSP
mutagenesis, PCR fragments carrying a mutation ([2]; ADCY9 meganuclease, 0 μM 5-aza-2′-deoxycytidine): 0.16% ± 0.06 | mutagenesis, PCR fragments carrying a mutation ([2]; ADCY9 meganuclease, 0 μM 5-aza-2′-deoxycytidine, listed as ADCY9 meganuclease): 0.16%±0.06 | mutagenesis, PCR fragments carrying a mutation ([2]; ADCY9 meganuclease, 0.2 μM 5-aza-2′-deoxycytidine): 0.48% ± 0.01 | mutagenesis, PCR fragments carrying a mutation ([2]; ADCY9 meganuclease, 1 μM 5-aza-2′-deoxycytidine): 0.36% | mutations ([2]; ADCY9 meganuclease, samples treated with 5-aza-2′deoxycytidine, n=2): up to 0.48%±0.01 | targeted events, % of the transfected cells ([3]; 5-aza-2′deoxycytidine (0.2 μM)): 3.37%±0.66 | targeted events, % of the transfected cells ([3]; absence of 5-aza-2′deoxycytidine): 0.70%±0.14 | increase of targeted event frequency ([3]; with 5-aza-2′deoxycytidine (0.2 μM) vs without): 4.8 fold
